Reference: patent US20140072553A1 (MORPHOTEK, published 2014)
Like-named read-outs stand apart in the source and are kept apart here.

T1: Staphylococcus enterotoxin B (Staphylococcus aureus, UniProt P01552 28-266)
T1 sequence: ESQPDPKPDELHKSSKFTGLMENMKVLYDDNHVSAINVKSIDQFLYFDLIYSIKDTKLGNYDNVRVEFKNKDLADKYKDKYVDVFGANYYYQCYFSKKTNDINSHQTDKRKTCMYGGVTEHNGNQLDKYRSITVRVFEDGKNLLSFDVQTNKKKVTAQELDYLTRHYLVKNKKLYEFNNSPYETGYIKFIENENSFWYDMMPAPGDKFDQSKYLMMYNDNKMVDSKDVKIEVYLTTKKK

B1: human anti-SEB monoclonal antibody 100C9 (antibody, V domains shown)
VH: EVQLVESGGGLVQPGGSLRLSCSASGFTFSSYWMSWVRQAPGKGLEWVANIIQDGSEKYYADSVKGRLTISRDNAKNSLYLQMNSLRVDDTAVYYCARGYEGCSATRCYLYYFDYWGPGTLVTVSS
VL: SYVLTQPPSVSVSPGQTARITCSGDALPKQYTYWYQQKPGQAPVVVIYKDSERPSGIPERFSGSSSGTTVTVTISGVQAEDEADYYCQSADSSGTSLVFGGGTKLTVLG
B2: human anti-SEB monoclonal antibody 79G9 (antibody, V domains shown)
VH: EVQLEESGAGLLKPSETLSLTCAVYGGSFSGYYWSWIRQAPGKGLEWIGEIDHSGTTNYNPSLKSRVTISVETSKNQFSLRLSSVTAADSAVYYCASSGYCSHGLCPQEDWGQGTLVTVSS
VL: DIELTQSPSFLSASVGDRVAITCRASQGISNYLAWYQQKPGKAPKLLIYAAFVLQSGVPSRFSGSGSGTEFTLTISNLQPEDFATYYCQQLNSYPRAFGPGTKVDIKR

How the values were obtained:
[1] = biological target: T1, Staphylococcus enterotoxin B; experiment: cell-based or functional assay
[2] = biological target: T1, Staphylococcus enterotoxin B
[3] = biological target: T1, Staphylococcus enterotoxin B; experiment: cell-based or functional assay; remark: listed apart in the source

| Binder | EC50 of inhibition of SEB-induced IFN-γ production by human PBMC [1] | Kd [2] | EC50 of inhibition of SEB-induced IFN-γ production by human PBMC [3] | EC50 of inhibition of SEB-induced TNF-α production by human PBMC [3] |
| --- | --- | --- | --- | --- |
| B1 | 0.0766 µg/mL | 9.75 nM | – | – |
| B2 | 0.125 µg/mL | 25 nM | 0.158 µg/mL | 0.217 µg/mL |
